The values that follow come from patent publication USRE43497 (FRAUNHOFER GESELLSCHAFT ZUR FORDERUNG DER ANGEWANDTEN …, dated 2012).

For experiment [1], the target named is T1, Recombinant human MIF (macrophage migration inhibitory factor) (human, UniProt P14174 2-115).
T1 construct: Used soluble (1 uM in TNT lysates); also called rMIF; rwtMIF
Put plainly: assay not described.

Experiment [2] addresses T2, biotin-labelled Jab1 (in vitro translated) (human, UniProt Q92905 2-334, biotin-labelled during in vitro translation (Transcend non-radioactive translation detection system); positions not stated).
T2 construct: also called biotin-Jab1; biotin-labelled p38^Jab1
Put plainly: competition with wildtype MIF for biotin-Jab1 in TNT reticulocyte lysate.

T2 sequence (Q92905 2-334 limits assumed): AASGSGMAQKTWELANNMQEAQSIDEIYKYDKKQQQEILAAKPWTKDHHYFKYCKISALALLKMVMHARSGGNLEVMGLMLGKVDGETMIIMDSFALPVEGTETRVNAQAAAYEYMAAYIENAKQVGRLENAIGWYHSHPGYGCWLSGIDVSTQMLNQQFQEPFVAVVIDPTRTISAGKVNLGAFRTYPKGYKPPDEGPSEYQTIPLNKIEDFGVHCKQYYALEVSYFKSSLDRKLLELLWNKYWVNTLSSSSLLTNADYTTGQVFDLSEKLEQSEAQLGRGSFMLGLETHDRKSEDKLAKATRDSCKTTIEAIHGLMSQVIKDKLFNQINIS
T1 sequence (P14174 2-115 limits assumed): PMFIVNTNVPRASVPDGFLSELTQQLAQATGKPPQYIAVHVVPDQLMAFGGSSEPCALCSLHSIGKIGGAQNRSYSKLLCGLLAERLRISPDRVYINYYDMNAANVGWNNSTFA

B1: p27^Kip1 (other, UniProt P46414 1-197, looked up)
chain: MSNVRVSNGSPSLERMDARQAEHPKPSACRNLFGPVNHEELTRDLEKHCRDMEEASQRKWNFDFQNHKPLEGRYEWQEVERGSLPEFYYRPPRPPKSACKVLAQESQDVSGSRQAVPLIGSQANSEDRHLVDQMPDSSDNPAGLAEQCPGMRKRPAAEDSSSQNKRANRTEENVSDGSPNAGTVEQTPKKPGLRRQT
Consider B1, for which, in experiment [1], the binding result is “no binding”.

B2: Ser^57 Ser^60 MIF (50-65) peptide (peptide)
peptide: FGGSSEPSALSSLHSI
notes: also called analogue of the MIF (50-65) peptide with the two Cys residues substituted for Ser
Take B2: the binding result in experiment [2] is recorded as “binds”.

B3: MIF (50-65) peptide (peptide)
peptide: FGGSSEPCALCSLHSI
notes: 16 residues, positions 50-65 of wildtype MIF; also called MIF peptide (50-65); Cys60-spanning 16 residue MIF peptide
Regarding B3, the binding result in experiment [2] is given as “binds”.
